What was measured:
P12bHq = target: T1, P12bHq; experiment: two-hybrid library CCNG1;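 further: natural log of median RNA to DNA barcode read ratio; higher means stronger binding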
T1 chain: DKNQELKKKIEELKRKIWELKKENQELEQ

P1bHq = target: T2, P1bHq; experiment: two-hybrid library CCNG1;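 further: natural log of median RNA to DNA barcode read ratio; higher means stronger binding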
T2 chain: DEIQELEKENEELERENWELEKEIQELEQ

P2bHq = target: T3, P2bHq; experiment: two-hybrid library CCNG1;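 further: natural log of median RNA to DNA barcode read ratio; higher means stronger binding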
T3 chain: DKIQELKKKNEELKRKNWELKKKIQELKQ

P3bHq = target: T4, P3bHq; experiment: two-hybrid library CCNG1;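 further: natural log of median RNA to DNA barcode read ratio; higher means stronger binding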
T4 chain: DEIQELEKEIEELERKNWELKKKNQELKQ

P4bHq = target: T5, P4bHq; experiment: two-hybrid library CCNG1
T5 chain: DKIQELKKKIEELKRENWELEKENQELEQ

P5bHq = target: T6, P5bHq; experiment: two-hybrid library CCNG1
T6 chain: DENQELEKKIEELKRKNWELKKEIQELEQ

P6bHq = target: T7, P6bHq; experiment: two-hybrid library CCNG1
T7 chain: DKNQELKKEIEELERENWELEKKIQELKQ

P7bHq = target: T8, P7bHq; experiment: two-hybrid library CCNG1
T8 chain: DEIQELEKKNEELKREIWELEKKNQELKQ

P8bHq = target: T9, P8bHq; experiment: two-hybrid library CCNG1
T9 chain: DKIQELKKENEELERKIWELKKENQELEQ

P9bHq = target: T10, P9bHq; experiment: two-hybrid library CCNG1
T10 chain: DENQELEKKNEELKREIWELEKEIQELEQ

P2-AA-1HAA-D = target: T11, P2-AA-1HAA-D; experiment: two-hybrid library CCmax; conditions: mean of both orientations
T11 chain: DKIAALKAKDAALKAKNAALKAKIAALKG

P2-AA-1HAA-E = target: T12, P2-AA-1HAA-E; experiment: two-hybrid library CCmax; conditions: mean of both orientations
T12 chain: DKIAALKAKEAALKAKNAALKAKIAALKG

P2-AA-1HAA-H = target: T13, P2-AA-1HAA-H; experiment: two-hybrid library CCmax; conditions: mean of both orientations
T13 chain: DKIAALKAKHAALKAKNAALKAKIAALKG

P2-AA-1HAA-I = target: T14, P2-AA-1HAA-I; experiment: two-hybrid library CCmax; conditions: mean of both orientations
T14 chain: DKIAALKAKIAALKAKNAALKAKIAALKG

P2-AA-1HAA-R = target: T15, P2-AA-1HAA-R; experiment: two-hybrid library CCmax; conditions: mean of both orientations
T15 chain: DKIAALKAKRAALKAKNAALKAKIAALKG

P2-AA-1HAA-S = target: T16, P2-AA-1HAA-S; experiment: two-hybrid library CCmax; conditions: mean of both orientations
T16 chain: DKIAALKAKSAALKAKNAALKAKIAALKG

P2-AA-1HAA-T = target: T17, P2-AA-1HAA-T; experiment: two-hybrid library CCmax; conditions: mean of both orientations
T17 chain: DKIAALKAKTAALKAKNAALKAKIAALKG

P2-AA-1HAA-V = target: T18, P2-AA-1HAA-V; experiment: two-hybrid library CCmax; conditions: mean of both orientations
T18 chain: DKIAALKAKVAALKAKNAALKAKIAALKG

P2-AA = target: T19, P2-AA; experiment: two-hybrid library CCmax; conditions: mean of both orientations
T19 chain: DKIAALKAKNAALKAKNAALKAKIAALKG

P12A = target: T20, P12A; experiment: two-hybrid library CCNG1
T20 chain: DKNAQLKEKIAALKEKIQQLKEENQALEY

P1A = target: T21, P1A; experiment: two-hybrid library CCNG1
T21 chain: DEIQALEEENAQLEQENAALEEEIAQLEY

P2A = target: T22, P2A; experiment: two-hybrid library CCNG1
T22 chain: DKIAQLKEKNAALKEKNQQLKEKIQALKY

P3A = target: T23, P3A; experiment: two-hybrid library CCNG1
T23 chain: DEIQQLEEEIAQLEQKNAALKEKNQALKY

P4A = target: T24, P4A; experiment: two-hybrid library CCNG1
T24 chain: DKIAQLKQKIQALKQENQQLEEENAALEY

P5A = target: T25, P5A; experiment: two-hybrid library CCNG1
T25 chain: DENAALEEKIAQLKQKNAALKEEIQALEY

P6A = target: T26, P6A; experiment: two-hybrid library CCNG1
T26 chain: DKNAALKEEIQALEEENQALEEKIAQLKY

P7A = target: T27, P7A; experiment: two-hybrid library CCNG1
T27 chain: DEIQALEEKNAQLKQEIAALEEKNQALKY

P8A = target: T28, P8A; experiment: two-hybrid library CCNG1
T28 chain: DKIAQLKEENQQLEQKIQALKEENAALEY

P9A = target: T29, P9A; experiment: two-hybrid library CCNG1
T29 chain: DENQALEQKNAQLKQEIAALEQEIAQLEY

P11A = target: T30, P11A; experiment: two-hybrid library CCNG1
T30 chain: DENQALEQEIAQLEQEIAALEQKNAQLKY

4H1158-bH = target: T31, 4H1158-bH; experiment: two-hybrid library CCNG1
T31 chain: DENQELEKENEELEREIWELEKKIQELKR

4H118-bH = target: T32, 4H118-bH; experiment: two-hybrid library CCNG1
T32 chain: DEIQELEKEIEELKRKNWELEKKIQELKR

4H170-bH = target: T33, 4H170-bH; experiment: two-hybrid library CCNG1
T33 chain: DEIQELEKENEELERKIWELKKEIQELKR

4H1831-bH = target: T34, 4H1831-bH; experiment: two-hybrid library CCNG1
T34 chain: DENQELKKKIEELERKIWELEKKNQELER

4H2586-bH = target: T35, 4H2586-bH; experiment: two-hybrid library CCNG1
T35 chain: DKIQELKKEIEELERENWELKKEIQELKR

4H2627-bH = target: T36, 4H2627-bH; experiment: two-hybrid library CCNG1
T36 chain: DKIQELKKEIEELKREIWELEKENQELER

4H2673-bH = target: T37, 4H2673-bH; experiment: two-hybrid library CCNG1
T37 chain: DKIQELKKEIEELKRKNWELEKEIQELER

4H2702-bH = target: T38, 4H2702-bH; experiment: two-hybrid library CCNG1
T38 chain: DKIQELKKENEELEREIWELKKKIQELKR

4H3010-bH = target: T39, 4H3010-bH; experiment: two-hybrid library CCNG1
T39 chain: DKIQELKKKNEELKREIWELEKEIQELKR

4H3112-bH = target: T40, 4H3112-bH; experiment: two-hybrid library CCNG1
T40 chain: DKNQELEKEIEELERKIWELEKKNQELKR

4H3427-bH = target: T41, 4H3427-bH; experiment: two-hybrid library CCNG1
T41 chain: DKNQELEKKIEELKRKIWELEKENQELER

4H346-bH = target: T42, 4H346-bH; experiment: two-hybrid library CCNG1
T42 chain: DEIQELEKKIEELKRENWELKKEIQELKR

4H3926-bH = target: T43, 4H3926-bH; experiment: two-hybrid library CCNG1
T43 chain: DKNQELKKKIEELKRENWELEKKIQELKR

4H4073-bH = target: T44, 4H4073-bH; experiment: two-hybrid library CCNG1
T44 chain: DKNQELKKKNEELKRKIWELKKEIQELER

4H457-bH = target: T45, 4H457-bH; experiment: two-hybrid library CCNG1
T45 chain: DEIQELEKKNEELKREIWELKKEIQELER

4H575-bH = target: T46, 4H575-bH; experiment: two-hybrid library CCNG1
T46 chain: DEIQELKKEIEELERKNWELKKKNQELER

4H683-bH = target: T47, 4H683-bH; experiment: two-hybrid library CCNG1
T47 chain: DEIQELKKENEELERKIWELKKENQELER

4H754-bH = target: T48, 4H754-bH; experiment: two-hybrid library CCNG1
T48 chain: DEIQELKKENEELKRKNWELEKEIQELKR

4H780-bH = target: T49, 4H780-bH; experiment: two-hybrid library CCNG1
T49 chain: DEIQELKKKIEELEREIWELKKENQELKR

4H797-bH = target: T50, 4H797-bH; experiment: two-hybrid library CCNG1
T50 chain: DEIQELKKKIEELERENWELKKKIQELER

4H855-bH = target: T51, 4H855-bH; experiment: two-hybrid library CCNG1
T51 chain: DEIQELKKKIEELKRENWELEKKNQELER

4H918-bH = target: T52, 4H918-bH; experiment: two-hybrid library CCNG1
T52 chain: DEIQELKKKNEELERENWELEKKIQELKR

4H953-bH = target: T53, 4H953-bH; experiment: two-hybrid library CCNG1
T53 chain: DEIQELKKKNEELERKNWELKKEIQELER

4H968-bH = target: T54, 4H968-bH; experiment: two-hybrid library CCNG1
T54 chain: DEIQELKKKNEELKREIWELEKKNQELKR

Binder: DKNQELKKKIEELKRKIWELKKENQELEQ [P12bHq]
- interaction score (P12bHq): -0.763
- interaction score (P1bHq): -1.45
- interaction score (P2bHq): -0.425
- interaction score (P3bHq): -0.851
- interaction score (P4bHq): 0.195
- interaction score (P5bHq): -0.597
- interaction score (P6bHq): 0.286
- interaction score (P7bHq): 0.639
- interaction score (P8bHq): -0.489
- interaction score (P9bHq): 1.15

Binder: DEIAALEAELAALEAENAALEAEIAALEG [P1-AA-1HAA-L]
- interaction score (P2-AA-1HAA-D): 1.71
- interaction score (P2-AA-1HAA-E): 1.89
- interaction score (P2-AA-1HAA-H): 1.95
- interaction score (P2-AA-1HAA-I): 1.62
- interaction score (P2-AA-1HAA-R): 1.98
- interaction score (P2-AA-1HAA-S): 1.77
- interaction score (P2-AA-1HAA-T): 1.93
- interaction score (P2-AA-1HAA-V): 1.87
- interaction score (P2-AA): 1.84

Binder: DKNAQLKEKIAALKEKIQQLKEENQALEY [P12A]
- interaction score (P12A): -1.24
- interaction score (P1A): -1.2
- interaction score (P2A): -1.43
- interaction score (P3A): 0.438
- interaction score (P4A): -1.48
- interaction score (P5A): -1.22
- interaction score (P6A): -1.16
- interaction score (P7A): -1.15
- interaction score (P8A): -1.25
- interaction score (P9A): -0.254

Binder: DEIAALEAETAALEAENAALEAEIAALEG [P1-AA-1HAA-T]
- interaction score (P2-AA-1HAA-D): 1.99
- interaction score (P2-AA-1HAA-E): 2.02
- interaction score (P2-AA-1HAA-H): 2.07
- interaction score (P2-AA-1HAA-I): 2.05
- interaction score (P2-AA-1HAA-R): 1.93
- interaction score (P2-AA-1HAA-S): 2.1
- interaction score (P2-AA-1HAA-T): 1.69
- interaction score (P2-AA-1HAA-V): 2.02
- interaction score (P2-AA): 1.88

Binder: DENQALEQEIAQLEQEIAALEQKNAQLKY [P11A]
- interaction score (P11A): -0.318
- interaction score (P12A): 2.09
- interaction score (P1A): -0.233
- interaction score (P2A): -0.397
- interaction score (P3A): 0.195
- interaction score (P4A): 1.99
- interaction score (P5A): 0.167
- interaction score (P6A): -0.873
- interaction score (P7A): -1.77
- interaction score (P8A): -0.16
- interaction score (P9A): 0.145

Binder: DENQELEKENEELEREIWELEKKIQELKR [4H1158-bH]
- interaction score (4H1158-bH): 0.619
- interaction score (4H118-bH): 0.729
- interaction score (4H170-bH): 0.0131
- interaction score (4H1831-bH): 0.197
- interaction score (4H2586-bH): 0.198
- interaction score (4H2627-bH): 1.81
- interaction score (4H2673-bH): 0.836
- interaction score (4H2702-bH): 0.109
- interaction score (4H3010-bH): 1.95
- interaction score (4H3112-bH): -0.598
- interaction score (4H3427-bH): 0.596
- interaction score (4H346-bH): 0.268
- interaction score (4H3926-bH): 1.63
- interaction score (4H4073-bH): 1.57
- interaction score (4H457-bH): 0.951
- interaction score (4H575-bH): 0.888
- interaction score (4H683-bH): 1.13
- interaction score (4H754-bH): 0.159
- interaction score (4H780-bH): 0.975
- interaction score (4H797-bH): 0.508
- interaction score (4H855-bH): -0.335
- interaction score (4H918-bH): -0.233
- interaction score (4H953-bH): 0.0112
- interaction score (4H968-bH): 0.725

Reference: publication PMC10397247
